Assay in all cases: Western blot, lysates of transiently transfected HEK 293 cells
Background: In western blotting, separated proteins are transferred to a membrane and probed.

In test [1] the target is T1, MAGE-A9 (human, UniProt P43362 1-315).
T1 construct: constructs not described
T1 sequence: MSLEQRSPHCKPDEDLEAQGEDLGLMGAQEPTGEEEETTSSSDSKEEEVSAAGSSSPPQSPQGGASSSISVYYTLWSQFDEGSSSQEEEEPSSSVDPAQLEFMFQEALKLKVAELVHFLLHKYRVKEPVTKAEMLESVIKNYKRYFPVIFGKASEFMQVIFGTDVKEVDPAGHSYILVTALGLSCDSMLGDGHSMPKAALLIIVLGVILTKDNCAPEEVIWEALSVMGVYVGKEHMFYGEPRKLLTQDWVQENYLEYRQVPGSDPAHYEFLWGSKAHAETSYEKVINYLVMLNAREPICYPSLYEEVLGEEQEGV
The method, then:
(§1) The specificity of mAbs 1B1, 16G7 and 23D2 were tested in Western blot analyses on HEK 293 cells transiently transfected with plasmids encoding MAGE-A1, A2, A3, A4, A6, A8, A9, A10, All and A12. Non-transfected cells were used as a control. Between 25 and 85 μg of lysates of transfected or non-transfected cells were electrophoresed on SDS-PAGE and transferred onto nitrocellulose. Immunodetection was performed by incubation of the blots with each of mAbs 1B1, 16G7 and 23D2. Immunodetection was additionally performed using a mixture of mAbs that together recognized all of the MAGE-A antigens expressed by the transfectants (see Table 6 for mAbs in this mixture).
(§2) Method: mini-gels were prepared with 10% acrylamide in the running gel and 4.5% acrylamide in the stacking gel. Samples were prepared in 40 μl of loading buffer (reducing conditions), the gel was loaded and migrated at 100V in the stacking gel and 200 V in the running gel. Proteins were transferred onto nitrocellulose at 100 mA during one hour at 4° C., and the membrane incubated in TBS-5% skimmed milk, and incubated with antibody diluted in TBS-1% skim milk for one hour at room temperature.

In test [2] the target is T2, MAGE-A10 (human, UniProt P43363 1-369).
T2 construct: In lysates of transiently transfected HEK 293 cells; construct not described
T2 sequence (P43363 whole entry R166K/V234I): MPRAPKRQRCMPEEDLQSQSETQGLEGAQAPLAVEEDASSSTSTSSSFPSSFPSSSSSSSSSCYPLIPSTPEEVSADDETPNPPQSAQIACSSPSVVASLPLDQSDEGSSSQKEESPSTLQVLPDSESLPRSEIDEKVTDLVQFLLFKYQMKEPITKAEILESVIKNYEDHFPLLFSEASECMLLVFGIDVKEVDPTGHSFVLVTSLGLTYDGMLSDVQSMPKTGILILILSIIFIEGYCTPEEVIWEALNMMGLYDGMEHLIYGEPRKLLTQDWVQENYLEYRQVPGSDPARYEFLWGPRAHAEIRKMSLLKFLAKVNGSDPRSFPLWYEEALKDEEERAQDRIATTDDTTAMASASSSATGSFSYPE
As for the experimental part: as §1, §2

Test [3] concerns the target T3, MAGE-A1 (human, UniProt P43355 1-309).
T3 construct: In lysates of transiently transfected HEK 293 cells; construct not described
T3 sequence: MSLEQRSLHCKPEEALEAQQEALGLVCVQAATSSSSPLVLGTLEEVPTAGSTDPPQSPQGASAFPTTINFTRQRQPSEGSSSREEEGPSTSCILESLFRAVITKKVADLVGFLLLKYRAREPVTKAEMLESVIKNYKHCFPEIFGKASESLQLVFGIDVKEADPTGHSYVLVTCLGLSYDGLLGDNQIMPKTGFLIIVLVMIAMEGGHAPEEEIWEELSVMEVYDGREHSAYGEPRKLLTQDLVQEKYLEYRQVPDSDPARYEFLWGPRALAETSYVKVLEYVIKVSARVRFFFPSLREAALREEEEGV
As for the experimental part: as §1, §2

In test [4] the target is T4, MAGE-A8 (human, UniProt P43361 1-318).
T4 construct: In lysates of transiently transfected HEK 293 cells; construct not described
T4 sequence: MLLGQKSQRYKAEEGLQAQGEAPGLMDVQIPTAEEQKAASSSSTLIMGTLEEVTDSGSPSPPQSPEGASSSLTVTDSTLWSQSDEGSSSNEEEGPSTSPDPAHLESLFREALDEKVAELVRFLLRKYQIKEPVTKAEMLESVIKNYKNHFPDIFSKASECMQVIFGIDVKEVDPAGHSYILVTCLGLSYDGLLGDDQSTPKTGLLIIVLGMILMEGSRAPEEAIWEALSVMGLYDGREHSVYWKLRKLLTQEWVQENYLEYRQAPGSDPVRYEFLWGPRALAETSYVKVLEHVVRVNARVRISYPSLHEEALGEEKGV
As for the experimental part: as §1, §2

Test [5] has as its target T5, MAGE-A11 (human, UniProt P43364 1-429).
T5 construct: In lysates of transiently transfected HEK 293 cells; construct not described
T5 sequence: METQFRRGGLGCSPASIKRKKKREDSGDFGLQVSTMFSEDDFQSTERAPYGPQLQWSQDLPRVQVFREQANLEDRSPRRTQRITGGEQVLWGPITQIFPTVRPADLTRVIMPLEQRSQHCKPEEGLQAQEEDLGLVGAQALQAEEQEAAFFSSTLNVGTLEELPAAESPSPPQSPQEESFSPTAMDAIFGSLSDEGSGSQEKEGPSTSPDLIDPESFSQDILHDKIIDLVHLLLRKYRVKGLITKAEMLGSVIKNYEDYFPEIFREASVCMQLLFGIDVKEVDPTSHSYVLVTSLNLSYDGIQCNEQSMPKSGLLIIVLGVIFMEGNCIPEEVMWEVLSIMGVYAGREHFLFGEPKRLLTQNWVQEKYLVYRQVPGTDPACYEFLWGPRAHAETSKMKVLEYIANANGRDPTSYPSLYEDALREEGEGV
The method, then:
as §1, §2

Test [6] concerns the target T6, MAGE-A4 (human, UniProt P43358 1-317).
T6 construct: In lysates of transiently transfected HEK 293 cells; construct not described
T6 sequence: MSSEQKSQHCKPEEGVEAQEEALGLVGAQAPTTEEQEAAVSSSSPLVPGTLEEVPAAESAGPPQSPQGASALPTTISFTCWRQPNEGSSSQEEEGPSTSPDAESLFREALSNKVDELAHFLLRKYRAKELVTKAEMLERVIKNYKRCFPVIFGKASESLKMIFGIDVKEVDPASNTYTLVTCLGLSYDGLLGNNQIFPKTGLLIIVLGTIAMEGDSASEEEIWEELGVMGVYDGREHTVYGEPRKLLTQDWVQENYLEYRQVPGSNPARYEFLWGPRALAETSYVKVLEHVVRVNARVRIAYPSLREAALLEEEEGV
As for the experimental part: as §1, §2

Test [7] addresses T7, MAGE-A6 (human, UniProt P43360 1-314).
T7 construct: In lysates of transiently transfected HEK 293 cells (Western blot); also endogenous MAGE-A6 in K562 lysate; Construct not described
The method, then:
as §1, §2

T7 sequence (P43360 whole entry Y283N): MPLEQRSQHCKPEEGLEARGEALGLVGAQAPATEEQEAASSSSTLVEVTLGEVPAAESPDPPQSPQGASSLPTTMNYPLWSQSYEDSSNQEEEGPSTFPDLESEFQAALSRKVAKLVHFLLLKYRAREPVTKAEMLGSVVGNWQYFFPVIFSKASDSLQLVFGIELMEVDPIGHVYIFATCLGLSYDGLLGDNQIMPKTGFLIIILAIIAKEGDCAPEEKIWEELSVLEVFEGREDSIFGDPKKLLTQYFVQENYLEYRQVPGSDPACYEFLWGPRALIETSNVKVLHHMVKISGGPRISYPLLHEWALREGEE

B1: mAb 16G7 (antibody, IgG1, V domains shown)
VH: EVMVVESGGGLVKPGGSLKLSCAASGFTFRTNAMSWVRQTPEKRLEWVATITSGGGSTYYPVSVKGRFTISRDNAKNTLYLQMSSLRSEDTAIYYCVRQDYFDYWGQGTFVIVSS
VL: QAVVTQESALTTSPGETVTLTCRSSTGAVTSTNYANWVQEKPDHLFTGLIGGTNNRAPGVPARFSGSLIGDKAALTITGAQTEDEAIYFCALWYSNHWVFGGGTKLTVL
notes: also called clone 16G7; hybridoma 16G7
Consider B1, for which the binding result in test [1] is “no binding (tested: Between 25 and 85 µg of lysates)”; in test [2], “no binding (tested: Between 25 and 85 µg of lysates)”; in test [3], “no binding (tested: Between 25 and 85 µg of lysates)”; in test [4], “no binding (tested: Between 25 and 85 µg of lysates)”; in test [5], “no binding (tested: Between 25 and 85 µg of lysates)”; in test [6], “no binding (tested: Between 25 and 85 µg of lysates)”. The binding result in test [7] is recorded as “binds”.

B2: mAb 23D2 (antibody, IgG2a, V domains shown)
VH: DVKLVESGGGLVKPGGSLKVSCVASGFTFSSYTMSWVRQTPEKRLEWVATITSGGGSSYYPDSVKGRFTISRDNAKNTLYLQITSLKSEDTAMYYCTSGGGVLLRLPLFAYWGQGTTLTVSS
VL: QAVVTQESALTTSPGETVTLTCRSSTGAVTASNYANWVQEKPDHSFTGLIGGINNRAPGVPARFSGSLIGDKAALTITGAQTEDEAIYFCALWYNNHWVFGGGTKLTVL
modifications: In the FIG. 8 ELISA and the FIG. 9 competition assay the antibody was biotinylated; the sites are not stated and the letters do not carry them.
notes: also called clone 23D2; hybridoma 23D2
Regarding B2, the binding result in test [1] is “no binding (tested: Between 25 and 85 µg of lysates)”; in test [2], “no binding (tested: Between 25 and 85 µg of lysates)”; in test [3], “no binding (tested: Between 25 and 85 µg of lysates)”; in test [4], “no binding (tested: Between 25 and 85 µg of lysates)”; in test [5] it was “no binding (tested: Between 25 and 85 µg of lysates)”; in test [6] it was “no binding (tested: Between 25 and 85 µg of lysates)”. Also, in test [7], the binding result is “binds”.

B3: mAb 1B1 (antibody, IgG1, V domains shown)
VH: DVQLQESGPGLVKPSQSLSLTCTVTGYSITSDYVWNWIRQFPGNKLEWMGYIGHSGRTSYNPSLKSRISITRDTSKNQFFLQLNSVTSEDTATYYCARGGNNGFAYWGQGTLVTVSA
VL: DIVMTQSPSSLTVTAGEKVTMSCKSSQSLLNSGNQKNYLTWYQQKPGQPPKLLIYWTSTRDSGVPDRFTGSGSGTDFTLTISSVQAEDLAVYYCQNDYSYPPTFGGGTKLEIKR
notes: Tested as hybridoma supernatant; also called clone 1B1; hybridoma 1B1
As for B3, the binding result is “no binding (tested: Between 25 and 85 µg of lysates)” in test [1]; “no binding (tested: Between 25 and 85 µg of lysates)” in test [2]; “no binding (tested: Between 25 and 85 µg of lysates)” in test [3]; “no binding (tested: Between 25 and 85 µg of lysates)” in test [4]; “no binding (tested: Between 25 and 85 µg of lysates)” in test [5]; “no binding (tested: Between 25 and 85 µg of lysates)” in test [6]. Besides, in test [7], the binding result is listed as “binds”.

These data come from patent publication US20130123472A1 (GlaxoSmithKline, published 2013).
